{"source": "patent US20100092488A1", "binders": {"B1": {"name": "anti-MK antibody (IP-13) (antibody, from another filing, V domains shown)", "VH": "EVQLQQSGPELVKPGASVKIPCKASGYTFTDYNMGWVKQSHGKSLEWIGDINPNNGGTIYNQKFKGKATLTVDKSSSTAYMELRSLTSEDTAVYYCARWSYSNPYFDYWGQGTTLTVSS", "VL": "SIVMTQTPNFLLVSAGDRVTITCKASQSVSNDVSWYQQKPGQSPKLLIYYASNLYTGVPDRFTGSGYGTDFTFTISTVQAEDLAVYFCQQDYSSPWTFGGGTKLEIK"}}, "molecular_target": "T1, MK (endogenous, in the culture of CD4-positive T cells from wild-type murine spleens with APC) (UniProt P12025)", "T1 sequence (looked up)": "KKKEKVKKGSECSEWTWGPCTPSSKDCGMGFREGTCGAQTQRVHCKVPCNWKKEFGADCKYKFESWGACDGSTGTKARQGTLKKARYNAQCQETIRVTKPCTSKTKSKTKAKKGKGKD", "test": "cell-based or functional assay", "data": [{"binder": "B1", "values": [{"measurement": "proportion of CD4-positive, CD25-positive T cells among the CD4-positive T cells (flow cytometer; IP-13 30 µg/mL, MOG35-55 and APC, five days)", "value": 4, "unit": "%"}]}]}
